This test deals with T1, SRC (UniProt P12931 2-536, limits assumed).
T1 construct: whole, on cells; Endogenous intracellular protein in cell lysates or stained cells; also called p-SRC (phosphorylated form)
Briefly: immunoprecipitation with ICAM-1 Tyr512 mutants.

B1: ICAM-1 Y512A mutant (receptor)
chain: QTSVSPSKVILPRGGSVLVTCSTSCDQPKLLGIETPLPKKELLLPGNNRKVYELSNVQEDSQPMCYSNCPDGQSTAKTFLTVYWTPERVELAPLPSWQPVGKNLTLRCQVEGGAPRANLTVVLLRGEKELKREPAVGEPAEVTTTVLVRRDHHGANFSCRTELDLRPQGLELFENTSAPYQLQTFVLPATPPQLVSPRVLEVDTQGTVVCSLDGLFPVSEAQVHLALGDQRLNPTVTYGNDSFSAKASVSVTAEDEGTQRLTCAVILGNQSQETLQTVTIYSFPAPNVILTKPEVSEGTEVTVKCEAHPRAKVTLNGVPAQPLGPRAQLLLKATPEDNGRSFSCSATLEVAGQLIHKNQTRELRVLYGPRLDERDCPGNWTWPENSQQTPMCQAWGNPLPELKCLKDGTFPLPIGESVTVTRDLEGTYLCRARSTQGEVTRKVTVNVLSPRYEIVIITVVAAAVIMGTAGLSTYLYNRQRKIKKARLQQAQKGTPMKPNTQATPP
notes: Mutant expressed in cells for immunoprecipitation
As for B1, the binding result was “binds”.

B2: ICAM-1 Y512D mutant (receptor)
chain: QTSVSPSKVILPRGGSVLVTCSTSCDQPKLLGIETPLPKKELLLPGNNRKVYELSNVQEDSQPMCYSNCPDGQSTAKTFLTVYWTPERVELAPLPSWQPVGKNLTLRCQVEGGAPRANLTVVLLRGEKELKREPAVGEPAEVTTTVLVRRDHHGANFSCRTELDLRPQGLELFENTSAPYQLQTFVLPATPPQLVSPRVLEVDTQGTVVCSLDGLFPVSEAQVHLALGDQRLNPTVTYGNDSFSAKASVSVTAEDEGTQRLTCAVILGNQSQETLQTVTIYSFPAPNVILTKPEVSEGTEVTVKCEAHPRAKVTLNGVPAQPLGPRAQLLLKATPEDNGRSFSCSATLEVAGQLIHKNQTRELRVLYGPRLDERDCPGNWTWPENSQQTPMCQAWGNPLPELKCLKDGTFPLPIGESVTVTRDLEGTYLCRARSTQGEVTRKVTVNVLSPRYEIVIITVVAAAVIMGTAGLSTYLYNRQRKIKKDRLQQAQKGTPMKPNTQATPP
notes: as for B1
Turning to B2, the binding result is on record as “binds”.

These data come from EP4184166A1 (FNCT Biotech, Inc., dated 2023).
